Patent US20110091971A1, “Differentiation of Pluripotent Stem Cells” (priority 2008, published 2011)

B1: ACTN24: activin A variant peptide, SEQ ID 25 (protein)
chain: GLECDGKVNLCCKKQDFVSFKDIGWNDWIIAPSGYHANRCSGRCPSHIAGTSGSSLSFHSTVINHYRMRGHSPFSDMGSCCVPTKLRPMSMLYYDDGQNIIKKDIQNMIVEECGCS
B2: ACTN29: activin A variant peptide, SEQ ID 30 (protein)
chain: GLECDGKVNLCCKKQLFVSFKDIGWNDWIIAPSGYHANHCSGKCPSHIAGTSGSSLSFHSTVINHYRMRGHSPFSDMGSCCIPTKLRPMSMLYYDDGQNIIKKDIQNMIVEECGCS
B3: ACTN26: activin A variant peptide, SEQ ID 27 (protein)
chain: GLECDGKVNLCCKKQHFVSFKDIGWNDWIIAPSGYHANRCDGKCPSHIAGTSGSSLSFHSTVINHYRMRGHSPFANMGACCIPTKLRPMSMLYYDDGQNIIKKDIQNMIVEECGCS
B4: ACTN25: activin A variant peptide, SEQ ID 26 (protein)
chain: GLECDGKVNLCCKKQNFVSFKDIGWNDWIIAPSGYHANECSGLCPSHIAGTSGSSLSFHSTVINHYRMRGHSPFSQMGSCCIPTKLRPMSMLYYDDGQNIIKKDIQNMIVEECGCS
B5: ACTN75: activin A variant peptide, SEQ ID 76 (protein)
chain: GLECDGKVNICCKKQSFGQAKDIGWNDWIIAPSGYHGGGCSGECPSHIAGTSGSSLSFHSTVINHYRMRGHSPWANLKSCCSPTKLRPMSMLYYDDGQNIIKKDIQRMKVEECGCT
B6: ACTN79: activin A variant peptide, SEQ ID 80 (protein)
chain: GLECDGKVNICCKKQSFGQAKDIGWNDWIIAPSGYHGGGCTGECPSHIAGTSGSSLSFHSTVINHYRMRGHSPWANLKSCCSPTKLRPMSMLYYDDGQNIIKKDIQRMVVEECGCT
B7: ACTN89: activin A variant peptide, SEQ ID 90 (protein)
chain: GLECDGKVNICCKKQLFGQTKDIGWNDWIIAPSGYHGGGCSGECPSHIAGTSGSSLSFHSTVINHYRMRGHSPNANLKSCCSPTKLRPMSMLYYDDGQNIIKKDIQNMKVEECGCT
B8: ACTN84: activin A variant peptide, SEQ ID 85 (protein)
chain: GLECDGKVNICCKKQSFGQAKDIGWNDWIIAPSGYHGGGCSGECPSHIAGTSGSSLSFHSTVINHYRMRGHSPFANLKSCCSPTKLRPMSMLYYDDGQNIIKKDIQNMVVEECGCT
B9: ACTN87: activin A variant peptide, SEQ ID 88 (protein)
chain: GLECDGKVNICCKKQSFGQAKDIGWNDWIIAPSGYHGGSCSGECPSHIAGTSGSSLSFHSTVINHYRMRGHSPFANLKSCCSPTKLRPMSMLYYDDGQNIIKKDIQNMVVEECGCT
B10: ACTN90: activin A variant peptide, SEQ ID 91 (protein)
chain: GLECDGKVNICCKKQSFGQTKDIGWNDWIIAPSGYHGGSCSGECPSHIAGTSGSSLSFHSTVINHYRMRGHSPFANLKSCCSPTKLRPMSMLYYDDGQNIIKKDIQNMKVEECGCT
B11: ACTN76: activin A variant peptide, SEQ ID 77 (protein)
chain: GLECDGKVNICCKKQLFGQTKDIGWNDWIIAPSGYHGGGCSGECPSHIAGTSGSSLSFHSTVINHYRMRGHSPNANLKSCCSPTKLRPMSMLYYDDGQNIIKKDIQGMKVEECGCT

Test system: H1 or H9 human embryonic stem cells
Assay: Activin A bioassay: differentiation of human embryonic stem cells to definitive endoderm, cell number and SOX17 intensity by high content analysis (96-well, four days);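 for Cell Number average: Raw total cell count per well from high content imaging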;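 for Sox 17 Intensity average: total fluorescence of the cell multiplied by cell area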
Format: cell-based
Details: for Sox 17 Intensity % of control: control = R&D Sys Activin A 100 ng/ml on same plate
Excerpt: Activin A is an important mediator of differentiation in a broad range of cell types. […] A bioassay that measures this differentiation in human embryonic stem cells was adapted in miniaturized format to 96-well plates for screening purposes. Validation was completed using treatment with commercial sources of activin A and Wnt3a recombinant proteins and measuring protein expression of the transcription factor SOX17, which is considered a representative marker of definitive endoderm.
Live Cell Assay: Briefly, clusters of H1 or H9 human embryonic stem cells were grown on growth factor-reduced MATRIGEL™ (Invitrogen; Cat #356231)-coated tissue culture plastic. Cells were passaged using collagenase (Invitrogen; Cat # Cat #17104-019) treatment and gentle scraping, washed to remove residual enzyme, and plated in a ratio of 1:1 (surface area) on growth factor-reduced MATRIGEL™-coated 96-well plates (black, 96-well; Packard ViewPlates; Cat #6005182). Cells were allowed to attach as clusters and then recover log phase growth over a 1 to 3 day period, feeding daily with MEF conditioned medium supplemented with 8 ng/ml bFGF (R&D Systems; Cat #233-FB).
The assay was initiated by washing the wells of each plate twice in PBS and followed by adding an aliquot (100 μl) of test sample in DMEM:F12 basal medium (Invitrogen; Cat #11330-032) to each well. Test conditions were performed in triplicate, feeding […] by aspirating and replacing the medium from each well with test samples over a total four day assay period. On the first and second day of assay, test samples added to the assay wells were diluted in DMEM:F12 with 0.5% FCS (HyClone; Cat #SH30070.03) and 20 ng/ml Wnt3a (R&D Systems; Cat #1324-WN). On the third and fourth day of assay, test samples added to the assay wells were diluted in DMEM:F12 with 2% FCS, without any Wnt3a. Positive control samples consisted of recombinant human activin A (Peprotech; Cat #120-14) added at a concentration of 100 ng/ml throughout assay plus Wnt3a (20 ng/ml) on days 1 and 2. Negative control samples omitted treatment with both activin A and Wnt3a.
High Content Analysis: At the conclusion of four days of culture, assay plates were washed twice with PBS, fixed with 4% paraformaldehyde at room temperature for 20 minutes, then washed three times with PBS and permeabilized with 0.5% Triton X-100 for 20 minutes at room temperature. Cells were washed again three times with PBS and blocked with 4% chicken serum (Invitrogen; Cat #16110082) in PBS for 30 minutes at room temperature. Primary antibody (goat anti-human SOX17; R&D Systems; cat #AF1924) was diluted 1:100 in 4% chicken serum and added to each well for one hour at room temperature. Alexa Fluor 488 conjugated secondary antibody (chicken anti-goat IgG; Molecular Probes; Cat #) was diluted 1:200 in PBS and added to each sample well after washing three times with PBS. To counterstain nuclei, 4 μg/ml Hoechst 33342 (Invitrogen; Cat #H3570) was added for ten minutes at room temperature. Plates were washed once with PBS and left in 100 μl/well PBS for imaging.
Imaging was performed using an IN Cell Analyzer 1000 (GE Healthcare) utilizing the 51008bs dichroic for cells stained with Hoechst 33342 and Alexa Fluor 488. Exposure times were optimized from positive control wells and from untreated negative control wells stained with secondary antibody alone. Images from 15 fields per well were acquired to compensate for any cell loss during the bioassay and subsequent staining procedures. Measurements for total cell number and total SOX17 intensity were obtained from each well using IN Cell Developer Toolbox 1.7 (GE Healthcare) software. Segmentation for the nuclei was determined based on grayscale levels (baseline range 100-300) and nuclear size. Averages and standard deviations were calculated for each replicate data set. […]

[1] = supernatant concentration 10x, assay dilution 1:20, assay plates #007, #009, #010
[2] = supernatant concentration 10x, assay dilution 1:20
[3] = supernatant concentration 50x, assay dilution 1:20, assay plates #008, #009
[4] = supernatant concentration 50x, assay dilution 1:20
[5] = supernatant concentration 1x, assay dilution 1:20
[6] = supernatant concentration 10x, assay dilution 1:40

Molecule | Cell Number average [1] | Sox 17 Intensity average [1] | Sox 17 Intensity % of control [2] [%] | Cell Number average [3] | Sox 17 Intensity average [3] | Sox 17 Intensity % of control [4] [%] | Cell Number average [5] | Sox 17 Intensity average [5] | Sox 17 Intensity % of control [5] [%] | Cell Number average [2] | Sox 17 Intensity average [2] | Cell Number average [6] | Sox 17 Intensity average [6] | Sox 17 Intensity % of control [6] [%]
B1 | 3261 | 2.91E+06 | 13.2 | 4785 | 1.04E+07 | 18.8 | – | – | – | – | – | – | – | –
B2 | 8943 | 5.13E+07 | 232.0 | 8835 | 1.03E+08 | 186.2 | – | – | – | – | – | – | – | –
B3 | 4250 | 5.92E+05 | 2.7 | 5043 | 4.78E+06 | 8.6 | – | – | – | – | – | – | – | –
B4 | 5043 | 3.55E+06 | 16.1 | 4620 | 1.52E+07 | 27.6 | – | – | – | – | – | – | – | –
B5 | – | – | 1.7 | – | – | – | 2873 | 1.81E+05 | 0.8 | 3867 | 3.91E+05 | 3641 | 1.24E+06 | 5.4
B6 | – | – | 1.7 | – | – | – | 2958 | 4.07E+05 | 1.8 | 7704 | 3.83E+05 | 2486 | 6.19E+04 | 0.3
B7 | – | – | 2.5 | – | – | – | 5495 | 3.63E+05 | 1.6 | 5558 | 5.77E+05 | 4474 | 7.23E+05 | 3.2
B8 | – | – | 1.2 | – | – | – | 1976 | 3.37E+05 | 1.5 | 2272 | 2.65E+05 | 5228 | 8.40E+05 | 3.7
B9 | – | – | 3.4 | – | – | – | 1548 | 5.85E+05 | 2.6 | 3258 | 7.89E+05 | 3613 | 3.99E+05 | 1.7
B10 | – | – | 1.8 | – | – | – | 1727 | 1.34E+06 | 5.9 | 2819 | 4.13E+05 | 3042 | 1.33E+06 | 5.8
B11 | – | – | 6.2 | – | – | – | 3613 | 9.19E+05 | 4.0 | 4732 | 1.43E+06 | 7608 | 7.54E+05 | 3.3
